Measured values reported in patent CN111138536A (REYOUNG (SUZHOU) BIOPHARMACEUTICAL CO LTD, dated 2020).

Molecular target: T1, 人血清白蛋白 (human, UniProt P02768 25-609)
T1 construct: also called HSA; human serum albumin
Assay: SPR (Biacore T200); HSA amine-coupled to CM5 chip, NB4 as analyte

Kd: 0.245 nM
B1: 单域抗体NB4 (VHH)
VHH: QVQLQESGGGSVQAGGSLRLACAASGYTYSSACMAWFRQAPGKEREKVATIYTGGTYPYYADSVKGRFTMSHDNAKNTVYLQMNSLKPEDTGMYYCAADASWGCRLSGSWGAKYNNWGQGTQVTVSS
notes: Camel-derived VHH, expressed in E. coli BL-21 from pET-22 with a C-terminal 6x His tag and purified on a nickel column; also called 抗人血清白蛋白单域抗体
